According to the RNAGym collection of RNA variant scans (doi:10.1073/pnas.2313332121):

B1: TPR t1 (parent)
chain: GACCAAUCUGCCCUCAGAGCUCGAGAACAUCUUCGGAUGCAGAGGAGGCAGGCUUCGGUGGCGCGAUAGCGCCAACGUCCUCAACCUCCAAUGCAUCCCACCACAUGAUGAUGCCUGAAGAGCCUUGGUUUUUUG

Variants of: B1
Test: polymerase ribozyme fitness, log enrichment relative to wild type (log ratio); higher = more active; in vitro selection for triplet polymerase activity
Outline: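 A single round of triplicate in vitro selection, including frozen incubation at −7 °C, was applied to PCR-built, transcribed mutant libraries of each subunit of a heterodimeric triplet polymerase ribozyme. Illumina sequencing of input and output libraries retained genotypes with ≥10 input reads and ≥1 read per output. Fitness is the base-2 logarithm of genotype enrichment divided by wild-type enrichment, from inverse-variance-weighted replicate averages.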

Variant	polymerase ribozyme fitness (log ratio)
G65A G117U	-6.21
A68G C85A	-4.94
A66U C85U	-2.22
A66U C85G	-1.65
C64G G113A	-6.17
G63U G93U C123U	-1.46
G65U G69U G113A U130G	-4.13
G63U C89U G93A G120A	-1.65
C64G A66G G69C C82A A105U	-3.01
G63U U78C C101A	-4.07
G69A G93U	-4.03
G69A G93A	-3.19
A66C U78C C101G C123A U132A	-3.72
G69A C102A	-6.02
C64U G77A C80A U92C	-5.1
C64U U92C	-1.23
C64U U92G	-3.31
G65A G77A	-5.24
C64U G71U	-2.96
G63U G120A U129G	-2.16
C64U G117C C123U	-4.94
A68G U87C A111C G135U	-6.03
G63U G107A	-4.13
A66C A95G	-1.6

Variant	polymerase ribozyme fitness (log ratio)
G69A C99U	-5.78
G69A C99A	-7.72
G63U U133A	-2.29
G69A C86U A111C	-3.32
U67G C88U A111G U116A	-7.24
C64A G120C U125G	-7.86
A66U C97U G120U C123U	-0.305
G63U C86U U112A	-0.646
G63U U131A	-0.516
G63U U134C	-2.26
C64A G110A G120A	-7.98
C64U G77A	-0.391
C64U G77U	-0.465
C64U C89G	-1.73
C64U C89U	-0.57
C64U C89A	-1.58
G69A C98A A121U	-6.1
C64A G65A C97U G120A	-5.01
C64U G65A A105G G113A	-6.73
C64G U78G G120A A121G C123A U131C	-4.99
C64U C72U A83G U133G	-1.1
C64U A91C G93A G120A U133G	-1.92
G63U C86A	-2.12
C64U U78C A83C A100C C101G U129G	-3.92

Variant	polymerase ribozyme fitness (log ratio)
A68C U78G U112A	-7.68
A66C C72G C115A	-1.65
A68U C72U C82A G93C C115U G122A	-7.25
C64U G117C C123U U125A	-6.02
A66U C124U	0.294
A66U C124G	0.671
C64U C101U	0.0607
G63U U130A	-1.46
G63U U130G	-0.881
G69A C72U	-1.06
A66G G77U C89A	-4.38
G65C C124A	-4.91
C64G C82G C89U A100G A111C U116A U129G	-5.44
C64G G65U C79G C104A C115A C123G	-6.93
A66U U130A	-1.42
A68C C115G C124U	-6.57
C64U G77C C79U C98A A121U U133C	-2.71
C64U A118G	-1.18
C64U U116G	-1.88
C64U A83G A111C	-2.93
C64U A111C U112C	-0.987
C64U A100U U130A	-1.02
C64A C86U A103U C114A	-6.49
A68G U96G	-3.68

Variant	polymerase ribozyme fitness (log ratio)
G69A C80U	-2.58
C64U A84U U87A	-1.17
A68G G71A	-4.15
A68G G113C	-4.28
A66C C88U G113U	-5.8
C64U U130G	-0.668
C64U C79A G110A	-3.21
A66U C79G	-4.01
C64U U96A	-1.23
C64U C114G	-2.3
A66C A111G G117U	-7.39
C64U C72A A108C	-5.82
C64U C76G C85A	-3.38
G63U C123G	0.817
G63U U78C C94A	-3.61
C64U C79U	-0.541
A68C C72U U78C C114G G120A C123U	-7.64
A66G C124G G128A	-1.05
A68C A105C U112G	-6.56
C64U C82A A91U G127U	-2.81
A66C U78C	-1.36
G65U C70U	-5.58
C64G C88U	-5.96
A68U G93U C101A G113U G117A	-6.33

Variant	polymerase ribozyme fitness (log ratio)
A66U G77A A95C	-2.7
C64U G69U G128C	-3.93
C64U C82A C124A	1.31
G63U G77C C124U	-0.341
C64U C80U C88U A111G C114A	-5.18
G69A G107C U112A	-6.47
C64U C114G C115A C123G C124A	-4.37
U67A C73U C94A C104U G117U	-6.08
A66U C115U	-3.52
G69A A91C U125A	-6.56
A66C A75G	-1.09
C64U A66G C86U A95U C99A G117C	-7.47
C64U C72G U78A G127U U129C	-1.9
C64U A121G	1.93
A66G A100U G120C	-0.756
G63U U132C	-2.69
G63U U132A	-0.852
G69A C88U	-2.7
G69A C88A	-1.98
G69A C89A	-4.54
G69A C89U	-2.85
C64U U78C C104U	0.13
G63U U78A A90U C94U G122U	-3.99
G63U U116A	-3.57

Variant	polymerase ribozyme fitness (log ratio)
C64A A84C	-5.15
C64A C94A	-6.34
G65A A68G A121U C123G	-5.3
C64G C72U	-6.14
G69A C114A A121G U130G	-4.38
C64U U131A	0.0289
G63U G113A	-1.99
G63U G113C	-2.98
G63U G113U	-4.29
U67G G69U G113U	-7.04
A66G C79G U81C C99G G113U G120C	-7.68
G69A C79U C80U	-6.55
G63U U78C	-2.92
C64U G93A U96A U126G	-5.25
G63U G117A	-1.66
G63U G117C	-4.05
A68G C72G A83U C86A C104U U112G U116C A119C	-6.61
A66G G71A A83C C88U U106A U130G	-3.75
C64U U129G	-1.46
C64U U129A	-0.991
C64U U129C	-0.708
G63U U87G G117U C123A	-3.97
G69A C72U A111C U131A	-3.01
C64U G107U U130C	-6.04

Variant	polymerase ribozyme fitness (log ratio)
C64G A121G	-4.54
C64G A121U	-4.94
C64U C79U U106A U109A	-5.15
A66U C72G A95C G110U	-6.57
G65A C88G	-5.43
G65U C73U	-5.34
C64U C115A	-0.337
G63U U81G A121C	-3.58
C64U A95G C115G	-2.07
A66G C76A	-1.89
A66G C76G	-1.2
A66C C85U C86U C97U	-3.15
G69A G71U	-4.27
U67G U92G C99G A121G	-7.6
A66C C85A	-3.06
C64U C115U U130A	-1.66
G63U U78G G107U A111U U116C	-6
C64A	-6.28
C64G	-6.67
C64U	-0.125
C64U C97A	-5.08
G63U U78C C123U	-1.9
C64U U81G	-4.28
